Experimental data taken from publication PMC11684626.

Biological target: HA-PEG10 gag-pol (Homo sapiens) (UniProt Q86TG7)
Experiment: co-sedimentation; crude VLP preparation: conditioned medium of co-transfected HEK293 cells, cleared at 2700 x g, ultracentrifuged at 134,000 x g for 4 hr at 4°C over a 30% sucrose cushion; pellet analysed by western blot

UniProt Q86TG7, sequence (Q86TG7 whole entry): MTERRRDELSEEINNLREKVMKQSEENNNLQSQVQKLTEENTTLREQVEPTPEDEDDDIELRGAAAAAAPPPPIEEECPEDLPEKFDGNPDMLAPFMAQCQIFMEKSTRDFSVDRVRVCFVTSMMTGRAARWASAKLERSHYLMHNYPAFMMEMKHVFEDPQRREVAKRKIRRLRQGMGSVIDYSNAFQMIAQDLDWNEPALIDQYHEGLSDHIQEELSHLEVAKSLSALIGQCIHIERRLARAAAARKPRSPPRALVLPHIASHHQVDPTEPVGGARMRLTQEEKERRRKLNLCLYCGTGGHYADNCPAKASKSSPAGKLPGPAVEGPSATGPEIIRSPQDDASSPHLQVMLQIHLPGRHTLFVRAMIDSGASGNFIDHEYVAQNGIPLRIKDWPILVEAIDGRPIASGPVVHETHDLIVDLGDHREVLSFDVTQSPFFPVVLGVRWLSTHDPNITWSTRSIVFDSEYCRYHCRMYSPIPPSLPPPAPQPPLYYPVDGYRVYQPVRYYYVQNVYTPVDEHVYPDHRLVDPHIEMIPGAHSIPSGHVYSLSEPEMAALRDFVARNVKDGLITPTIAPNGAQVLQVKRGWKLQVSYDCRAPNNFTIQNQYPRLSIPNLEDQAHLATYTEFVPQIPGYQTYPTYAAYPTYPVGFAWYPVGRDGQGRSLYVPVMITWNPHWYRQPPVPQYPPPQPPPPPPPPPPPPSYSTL

HA-HsRTL8c (from UniProt A6ZKI3 1-113) (natural protein)
abundance of RTL8 relative to HA-PEG10 in the VLP fraction: 5%
